Among the data in the supplement of paper PMC10567573 are protein stability index values, retold here.

Sequences and labels used below:
B1: VAMP4 (parent)
chain: IMALVAAILLLVIIILIVMKYRT
B2: SFRS1 (parent)
chain: YSPRRSRGSPRYSPRHSRSRSRT
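Note: lentivirally expressed fusions sorted by FACS into six bins by GFP to DsRed ratio, PSI derived from sequencing read proportions per bin multiplied by bin number.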

One data set covers variants of B1. As to the kind of experiment: protein stability index of a GFP-peptide fusion (GPS, HEK-293T) (PSI 1-6); higher = more stable. Particulars: c terminus: native.
Regarding IMALVAAILLLVIIILIVMKYRL, the protein stability index came to 3.06.

With IMALVAAILLLVIIILIVMKYRS, the protein stability index was determined as 3.11.

As to IMALVAAILLLVIIILIVMKYRP, the protein stability index is 3.28.

For the variant IMALVAAILLLVIIILIVMKYRH, the protein stability index was 3.48.

Regarding IMALVAAILLLVIIILIVMKYRR, the protein stability index worked out at 2.99.

As to IMALVAAILLLVIIILIVMKYRW, the protein stability index was 3.69.

For IMALVAAILLLVIIILIVMKYRG, the protein stability index amounted to 3.81.

For the variant IMALVAAILLLVIIILIVMKYRA, the protein stability index was determined as 3.69.

In the case of IMALVAAILLLVIIILCVMKYRT, the protein stability index stood at 3.11.

Regarding IMALVAAILLLVIIILHVMKYRT, the protein stability index was 1.85.

As for IMALVAAILLLVIIILKVMKYRT, the protein stability index amounted to 2.9.

In the case of IMALVAAILLLVIIILYVMKYRT, the protein stability index is 2.21.

As for IMALVAAILLLVIIILVVMKYRT, the protein stability index came to 3.11.

As for IMALVAAILLLVIIILAVMKYRT, the protein stability index is 3.54.

As for IMALVAAILLLVIIILRVMKYRT, the protein stability index amounted to 2.33.

Take IMALVAAILLLVIIILPVMKYRT: the protein stability index was found to be 2.77.

Take IMALVAAILLLVIIILEVMKYRT: the protein stability index is 2.57.

Regarding IMALVAAILLLVIIILQVMKYRT, the protein stability index turned out to be 2.31.

On to IMALVAAILLLVIIILMVMKYRT, for which the protein stability index amounted to 3.45.

Consider IMALVAAILLLVIIILTVMKYRT, for which the protein stability index came to 3.26.

For the variant IMALVAAILLLVIIILSVMKYRT, the protein stability index was determined as 3.07.

For the variant IMALVAAILLLVIIILGVMKYRT, the protein stability index came out at 2.83.

For IMALVAAILLLVIIILNVMKYRT, the protein stability index stood at 2.79.

On to IMALVAAILLLVIIILWVMKYRT, for which the protein stability index was 2.44.

Consider IMALVAAILLLVIIILFVMKYRT, for which the protein stability index came out at 2.58.

For the variant IMALVAAILLLVIIILLVMKYRT, the protein stability index came to 2.96.

As to IMALVAAILLLVIIILDVMKYRT, the protein stability index is 1.74.

Turning to IMALVAAILLLVIIILIVFKYRT, the protein stability index was 3.48.

On to IMALVAAILLLVIIILIVSKYRT, for which the protein stability index is 3.33.

Turning to IMALVAAILLLVIIILIVPKYRT, the protein stability index was found to be 2.66.

Regarding IMALVAAILLLVIIILIVLKYRT, the protein stability index worked out at 3.68.

As for IMALVAAILLLVIIILIVVKYRT, the protein stability index was found to be 3.41.

With IMALVAAILLLVIIILIVNKYRT, the protein stability index was determined as 3.33.

In the case of IMALVAAILLLVIIILIVYKYRT, the protein stability index came out at 3.09.

On to IMALVAAILLLVIIILIVGKYRT, for which the protein stability index was found to be 2.99.

For IMALVAAILLLVIIILIVCKYRT, the protein stability index was determined as 2.78.

Consider IMALVAAILLLVIIILIVDKYRT, for which the protein stability index is 3.19.

As to IMALVAAILLLVIIILIVTKYRT, the protein stability index stood at 2.72.

IMALVAAILLLVIIILIVRKYRT: the protein stability index is 2.91.

IMALVAAILLLVIIILIVWKYRT: the protein stability index stood at 3.11.

For the variant IMALVAAILLLVIIILIVAKYRT, the protein stability index was 2.88.

For IMALVAAILLLVIIILIVKKYRT, the protein stability index is 2.77.

As to IMALVAAILLLVIIILIVIKYRT, the protein stability index was determined as 3.64.

For the variant IMALVAAILLLVIIILIVQKYRT, the protein stability index turned out to be 2.51.

Regarding IMALVAAILLLVIIILIVEKYRT, the protein stability index was determined as 3.07.

Turning to IMALVAAILLLVIIILIVHKYRT, the protein stability index was found to be 3.08.

A further data set covers variants of B2. Described as above. Particulars: c terminus: native.
For the variant YSERRSRGSPRYSPRHSRSRSRT, the protein stability index came out at 4.18.

As for YSQRRSRGSPRYSPRHSRSRSRT, the protein stability index turned out to be 3.72.

As to YSFRRSRGSPRYSPRHSRSRSRT, the protein stability index is 3.91.

With YSIRRSRGSPRYSPRHSRSRSRT, the protein stability index was determined as 2.8.

As for YSGRRSRGSPRYSPRHSRSRSRT, the protein stability index stood at 4.3.

As to YSHRRSRGSPRYSPRHSRSRSRT, the protein stability index was determined as 4.16.

For the variant YSNRRSRGSPRYSPRHSRSRSRT, the protein stability index was determined as 4.15.

Consider YSDRRSRGSPRYSPRHSRSRSRT, for which the protein stability index worked out at 4.51.

Consider YSCRRSRGSPRYSPRHSRSRSRT, for which the protein stability index stood at 3.4.

YSMRRSRGSPRYSPRHSRSRSRT: the protein stability index turned out to be 3.58.

For YSLRRSRGSPRYSPRHSRSRSRT, the protein stability index worked out at 3.8.

On to YSKRRSRGSPRYSPRHSRSRSRT, for which the protein stability index worked out at 3.56.

For YSARRSRGSPRYSPRHSRSRSRT, the protein stability index is 3.81.

In the case of GSPRRSRGSPRYSPRHSRSRSRT, the protein stability index was 4.65.

As for PSPRRSRGSPRYSPRHSRSRSRT, the protein stability index was found to be 4.55.

Turning to LSPRRSRGSPRYSPRHSRSRSRT, the protein stability index was 3.74.

As for FSPRRSRGSPRYSPRHSRSRSRT, the protein stability index is 2.96.

On to SSPRRSRGSPRYSPRHSRSRSRT, for which the protein stability index was determined as 4.36.

On to RSPRRSRGSPRYSPRHSRSRSRT, for which the protein stability index was 5.25.

As to KSPRRSRGSPRYSPRHSRSRSRT, the protein stability index was found to be 4.1.

Consider WSPRRSRGSPRYSPRHSRSRSRT, for which the protein stability index came out at 4.08.

MSPRRSRGSPRYSPRHSRSRSRT: the protein stability index is 3.9.

Regarding ASPRRSRGSPRYSPRHSRSRSRT, the protein stability index is 4.29.

As to DSPRRSRGSPRYSPRHSRSRSRT, the protein stability index was 3.9.

For the variant HSPRRSRGSPRYSPRHSRSRSRT, the protein stability index was found to be 4.86.

As for TSPRRSRGSPRYSPRHSRSRSRT, the protein stability index came to 4.43.

Turning to QSPRRSRGSPRYSPRHSRSRSRT, the protein stability index is 4.55.

Turning to NSPRRSRGSPRYSPRHSRSRSRT, the protein stability index is 5.03.

For the variant ISPRRSRGSPRYSPRHSRSRSRT, the protein stability index was found to be 4.17.

For CSPRRSRGSPRYSPRHSRSRSRT, the protein stability index was found to be 3.99.

Regarding ESPRRSRGSPRYSPRHSRSRSRT, the protein stability index is 3.92.

Take VSPRRSRGSPRYSPRHSRSRSRT: the protein stability index stood at 4.65.

YKPRRSRGSPRYSPRHSRSRSRT: the protein stability index came out at 3.9.

For YNPRRSRGSPRYSPRHSRSRSRT, the protein stability index was 3.54.

Turning to YPPRRSRGSPRYSPRHSRSRSRT, the protein stability index came to 3.71.

As to YGPRRSRGSPRYSPRHSRSRSRT, the protein stability index stood at 4.27.

Consider YFPRRSRGSPRYSPRHSRSRSRT, for which the protein stability index was determined as 3.52.

Turning to YDPRRSRGSPRYSPRHSRSRSRT, the protein stability index was found to be 4.09.

As to YWPRRSRGSPRYSPRHSRSRSRT, the protein stability index came to 4.07.

Regarding YAPRRSRGSPRYSPRHSRSRSRT, the protein stability index is 2.

YEPRRSRGSPRYSPRHSRSRSRT: the protein stability index is 4.12.

Turning to YIPRRSRGSPRYSPRHSRSRSRT, the protein stability index turned out to be 3.27.

For the variant YQPRRSRGSPRYSPRHSRSRSRT, the protein stability index was 3.98.

Turning to YCPRRSRGSPRYSPRHSRSRSRT, the protein stability index amounted to 1.94.

With YLPRRSRGSPRYSPRHSRSRSRT, the protein stability index came to 4.2.

Take YTPRRSRGSPRYSPRHSRSRSRT: the protein stability index was found to be 3.19.

With YHPRRSRGSPRYSPRHSRSRSRT, the protein stability index was 2.75.

On to YVPRRSRGSPRYSPRHSRSRSRT, for which the protein stability index stood at 1.85.

On to YYPRRSRGSPRYSPRHSRSRSRT, for which the protein stability index was determined as 3.62.

On to YRPRRSRGSPRYSPRHSRSRSRT, for which the protein stability index was determined as 4.84.

Take YMPRRSRGSPRYSPRHSRSRSRT: the protein stability index is 3.77.
